{"source": "patent US20180258187A1", "about": "(Memorial Sloan Kettering, published 2018)", "binders": {"B1": {"name": "LMP2-38×CD3 bispecific antibody (bispecific antibody)", "chain": "QSALTQPASVSGSPGQSITISCTGTSSDVGSYNDVSWYQQHPGKAPKLMIYDVSNRPSGVSNRFSGSKSGNTASLTISGLQTEDEADYYCNSYTSSNTYVFGTGTKVTVLGQVQLVQSGAEVKKPGASVQVSCRASGYTITSYYMHWVRQAPGQGLEWMGVINPNAGSTRYAQKFQGRVTMSTDTSTSTVYMALSSLRSDDTAVYYCARGMYRMYDWGQGTLVTVSSDVQLVQSGAEVKKPGASVKVSCKASGYTFTRYTMHWVRQAPGQGLEWIGYINPSRGYTNYADSVKGRFTITTDKSTSTAYMELSSLRSEDTATYYCARYYDDHYCLDYWGQGTTVTVSSGEGTSTGSGGSGGSGGADDIVLTQSPATLSLSPGERATLSCRASQSVSYMNWYQQKPGKAPKRWIYDTSKVASGVPARFSGSGSGTDYSLTINSLEAEDAATYYCQQWSSNPLTFGGGTKVEIKHHHHHH"}}, "target": "EBV-LMP2 peptide presented by HLA-A*02:02 on artificial antigen presenting cells (human; Epstein-Barr virus)", "assay": "cell-based or functional assay", "data": [{"binder": "B1", "values": [{"measurement": "EC50 (read off the curve), T cell cytotoxicity on peptide-pulsed aAPC expressing HLA-A*02:02", "result": "~0.02", "unit": "µg/mL"}]}]}
